B1: FB006 (peptide)
peptide: Ac-WEEWDREINNYTKLIHELIEESQNQQEKNEQELL-NH2
B2: FB005 (peptide)
peptide: Ac-SLEQIWNNMTWEEWDREINNYTELIHELIEESQNQQEKNEQELL-NH2

Legend:
[1] = biological target: HIV-1 IIIB viral envelope protein gp41 (HIV-1 IIIB) (UniProt P04578); assay: cell-based or functional assay
[2] = biological target: HIV-1 IIIB viral envelope protein gp41 (HIV-1 IIIB, UniProt P04578 512-856); assay: cell-based or functional assay

Molecule | IC50 (nM), 50% viral inhibition drug concentration, HIV-1 IIIB in fresh human PBMC cultures [1] [nM] | fold increase of the antiviral IC50 against FB006 [1] [fold] | IC50 (nM), 50% viral inhibition drug concentration, HIV-1 IIIB in fresh human PBMC cultures [2] [nM]
FB006M conjugated with human serum albumin (HSA) (from UniProt P02768 25-609) | 3.94 | 2.8 | –
B1 | – | – | 1.41
B2 | – | – | 0.93
